Measured values: US20170313764A1 (ACADEMISCH MEDISCH CENTRUM, published 2017)

Columns and labels:
[1] = target: E1E2 of HCV isolate H77 (genotype 1a), wild type (Hepatitis C virus genotype 1a, strain …, UniProt P27958 192-383; P27958 384-746); experiment: cell-based or functional assay
[2] = target: E1E2 of HCV isolate AMS.1b.20877857 (genotype 1b) (Hepatitis C virus genotype 1b); experiment: cell-based or functional assay
[3] = target: E1E2 of HCV isolate AMS.2b.20876551.kloon21 (genotype 2b) (Hepatitis C virus genotype 2b); experiment: cell-based or functional assay
[4] = target: E1E2 of HCV isolate AMS.3a.21071213 (genotype 3a) (Hepatitis C virus genotype 3a); experiment: cell-based or functional assay
[5] = target: E1E2 of HCV isolate UKN4.11.1 (genotype 4) (Hepatitis C virus genotype 4); experiment: cell-based or functional assay
[6] = target: E1E2 of HCV isolate AMS.4d.20875969 (genotype 4d) (Hepatitis C virus genotype 4d); experiment: cell-based or functional assay
[7] = target: E1E2 of HCV isolate H77 with single mutation N415A (Hepatitis C virus genotype 1a, strain …, UniProt P27958 192-383; P27958 384-746); experiment: ELISA, GNA-captured E1E2 lysate; EC50 wild type / EC50 mutant
[8] = target: E1E2 of HCV isolate H77 with single mutation S424A (Hepatitis C virus genotype 1a, strain …, UniProt P27958 192-383; P27958 384-746); experiment: as above
[9] = target: E1E2 of HCV isolate H77 with single mutation T435A (Hepatitis C virus genotype 1a, strain …, UniProt P27958 192-383; P27958 384-746); experiment: as above
[10] = target: E1E2 of HCV isolate H77 with single mutation G436A (Hepatitis C virus genotype 1a, strain …, UniProt P27958 192-383; P27958 384-746); experiment: as above
[11] = target: E1E2 of HCV isolate H77 with single mutation A439G (Hepatitis C virus genotype 1a, strain …, UniProt P27958 192-383; P27958 384-746); experiment: as above
[12] = target: E1E2 of HCV isolate H77 with single mutation Y443A (Hepatitis C virus genotype 1a, strain …, UniProt P27958 192-383; P27958 384-746); experiment: as above
[13] = target: E1E2 of HCV isolate H77 with single mutation Y485A (Hepatitis C virus genotype 1a, strain …, UniProt P27958 192-383; P27958 384-746); experiment: as above
[14] = target: E1E2 of HCV isolate H77 with single mutation T526A (Hepatitis C virus genotype 1a, strain …, UniProt P27958 192-383; P27958 384-746); experiment: as above
[15] = target: E1E2 of HCV isolate H77 with single mutation Y527A (Hepatitis C virus genotype 1a, strain …, UniProt P27958 192-383; P27958 384-746); experiment: as above
[16] = target: E1E2 of HCV isolate H77 with single mutation W529A (Hepatitis C virus genotype 1a, strain …, UniProt P27958 192-383; P27958 384-746); experiment: as above
[17] = target: E1E2 of HCV isolate H77 with single mutation G530A (Hepatitis C virus genotype 1a, strain …, UniProt P27958 192-383; P27958 384-746); experiment: as above
[18] = target: E1E2 of HCV isolate H77 with single mutation D535A (Hepatitis C virus genotype 1a, strain …, UniProt P27958 192-383; P27958 384-746); experiment: as above
[19] = target: E1E2 of HCV isolate H77 with single mutation W616A (Hepatitis C virus genotype 1a, strain …, UniProt P27958 192-383; P27958 384-746); experiment: as above
[20] = target: E1E2 of HCV isolate H77 with single mutation R657A (Hepatitis C virus genotype 1a, strain …, UniProt P27958 192-383; P27958 384-746); experiment: as above
[21] = target: E1E2 of HCV isolate H77 with single mutation D698A (Hepatitis C virus genotype 1a, strain …, UniProt P27958 192-383; P27958 384-746); experiment: as above
[22] = target: E1E2 of HCV isolate H77 with single mutation L413A (Hepatitis C virus genotype 1a, strain …, UniProt P27958 192-383; P27958 384-746); experiment: as above
[23] = target: E1E2 of HCV isolate H77 with single mutation G418A (Hepatitis C virus genotype 1a, strain …, UniProt P27958 192-383; P27958 384-746); experiment: as above
[24] = target: E1E2 of HCV isolate H77 with single mutation W420A (Hepatitis C virus genotype 1a, strain …, UniProt P27958 192-383; P27958 384-746); experiment: as above
[25] = target: T1, soluble E2-his6-sortase tag from HCV isolate H77 (genotype 1a) (Hepatitis C virus genotype 1a, strain …, UniProt P27958 384-717); experiment: SPR (IBIS MX96), antibody spotted on chip, soluble E2-his as analyte
T1 construct: also called E2-his6-ST; E2 genotype 1a

[26] = target: T2, soluble E2-his6-sortase tag from HCV isolate AMS.2b.20876551.kloon21 (genotype 2b) (Hepatitis C virus genotype 2b); experiment: as above
T2 chain: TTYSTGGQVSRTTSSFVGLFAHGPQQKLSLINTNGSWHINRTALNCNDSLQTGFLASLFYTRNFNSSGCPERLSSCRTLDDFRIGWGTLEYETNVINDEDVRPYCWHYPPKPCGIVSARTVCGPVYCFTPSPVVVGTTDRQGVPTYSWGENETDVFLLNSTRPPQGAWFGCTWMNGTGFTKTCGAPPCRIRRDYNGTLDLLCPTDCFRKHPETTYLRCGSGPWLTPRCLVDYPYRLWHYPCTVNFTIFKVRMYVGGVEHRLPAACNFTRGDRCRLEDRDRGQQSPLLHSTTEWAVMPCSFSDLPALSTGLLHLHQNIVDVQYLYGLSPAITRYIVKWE

[27] = target: T3, HCV E1E2 protein in transfected 293T cells (CD81 competition assay; isolate not stated); experiment: flow cytometry competition: E1E2-transfected 293T cells pre-incubated with antibody, then CD81-LEL (mouse Fc) added and detected; blocked ligand CD81-LEL
T3 construct: also called E1E2 transfected cells

B1: AT13-021 (antibody, V domains shown)
VH: QVQLVQSGAEVKKPGSSVKVSCKASGGTFNTHAFSWVRQAPGEGLEWMGGISPMSGTPNYAQKFQGRLTITADESTSTGYMELRSLTSEDTAVYYCARELIGYCTGGNCYSFGDFWGQGTLITVSS
VL: EIVMTQSPATLSVSPGERATLSCRASQSVSSHLAWYQHKPGQAPRLLISGASTRAVGVPARFSGSGSGTEFTLTISSLQSEDFAVYYCHQYNTWPRGFGQGTKVDFKR
IC50, HCVpp neutralization [1]: 0.3 µg/mL | IC90, HCVpp neutralization [1]: 9.98 µg/mL | IC50, HCVpp neutralization [2]: 0.09 µg/mL | IC90, HCVpp neutralization [2]: 5.67 µg/mL | IC50, HCVpp neutralization [3]: 0.12 µg/mL | IC90, HCVpp neutralization [3]: 8.84 µg/mL | IC50, HCVpp neutralization [4]: 0.25 µg/mL | IC90, HCVpp neutralization [4]: 12.3 µg/mL | IC50, HCVpp neutralization [5]: 0.94 µg/mL | IC90, HCVpp neutralization [5]: 13.9 µg/mL | IC50, HCVpp neutralization [6]: 0.94 µg/mL | IC90, HCVpp neutralization [6]: > 50 µg/mL | relative binding, mutant vs wild type [7]: 119% | relative binding, mutant vs wild type [8]: 17% | relative binding, mutant vs wild type [9]: 21% | relative binding, mutant vs wild type [10]: < 10% | relative binding, mutant vs wild type [11]: 53% | relative binding, mutant vs wild type [12]: 87% | relative binding, mutant vs wild type [13]: 114% | relative binding, mutant vs wild type [14]: 27% | relative binding, mutant vs wild type [15]: 21% | relative binding, mutant vs wild type [16]: 13% | relative binding, mutant vs wild type [17]: < 10% | relative binding, mutant vs wild type [18]: < 10% | relative binding, mutant vs wild type [19]: < 10% | relative binding, mutant vs wild type [20]: 88% | relative binding, mutant vs wild type [21]: 80% | relative binding, mutant vs wild type [22]: 185% | relative binding, mutant vs wild type [23]: 131% | relative binding, mutant vs wild type [24]: 103% | Kd [25]: 14.2 nM | koff [25]: 0.00036 s⁻¹ | Kd [26]: 2 nM | koff [26]: 0.0001 s⁻¹

B2: AT12-009 (antibody, V domains shown)
VH: SSVRVSCKASGDTFKTHAISWVRQAPGQGLEWVGGTVRQAPGDGLELLGGFVPILAPANDAQKFQGRVTITADGSTGPVYMDLSTLTSEDTAMYYCVTSLSEPIPRSCRGGRCYSGPFDAFGVWGQGTMVTVSS
VL: ETMLTQSPVTLSVSPGERATLSCRASQSIGTNLAWYQQKPGQAPRLLIHGASTRATGVPVSFSGSGSGTEFTLTISSLQSEDFAVYYCQQYNNWPLTFGGGTKVDFKR
IC50, HCVpp neutralization [2]: 0.001 µg/mL | IC90, HCVpp neutralization [2]: 0.13 µg/mL | IC50, HCVpp neutralization [3]: 0.06 µg/mL | IC90, HCVpp neutralization [3]: 6.17 µg/mL | IC50, HCVpp neutralization [4]: 0.14 µg/mL | IC90, HCVpp neutralization [4]: 5.34 µg/mL | IC50, HCVpp neutralization [5]: 0.19 µg/mL | IC90, HCVpp neutralization [5]: 14.1 µg/mL | IC50, HCVpp neutralization [6]: 0.72 µg/mL | IC90, HCVpp neutralization [6]: 47.4 µg/mL | Kd [26]: 2.3 nM | koff [26]: 0.0002 s⁻¹ | IC50 (read off the curve) [27]: ~2 µg/mL

B3: AT12-011 (antibody, V domains shown)
VH: QVQLVQSGAEVKKPGSSVKVSCKASGGTFSGYGITWVRQAPGQGLEWMGTIIPVSATETYAQRLQGRVTISADEHSTTSYMEVSSLKSEDTALYYCARHDYFWGTPLDIWGQGTMVIVSS
VL: EIVLTQSPDFQSVTPKEKVTITCRASQSIGSNLHWYQQKPGQSPKLLIKYASQSFSGVPSRFSGSGSGTDFTLTINSLEAEDAATYFCHQSYNLPRTFGGGTKVEIKR
IC50, HCVpp neutralization [2]: 4.31 µg/mL | IC90, HCVpp neutralization [2]: > 50 µg/mL | IC50, HCVpp neutralization [3]: 27.5 µg/mL | IC90, HCVpp neutralization [3]: > 50 µg/mL | IC50, HCVpp neutralization [4]: > 50 µg/mL | IC90, HCVpp neutralization [4]: > 50 µg/mL | IC50, HCVpp neutralization [5]: > 50 µg/mL | IC90, HCVpp neutralization [5]: > 50 µg/mL | IC50, HCVpp neutralization [6]: > 50 µg/mL | IC90, HCVpp neutralization [6]: > 50 µg/mL | Kd [25]: 0.3 nM | Kd [26]: 0.2 nM
